Measured values from patent US20060247419A1, “Translocation dependent complementation for drug screening” (BioImage A/S, priority 2002, published 2006).

Legend:
[1] = system: β-catenin translocation to the nucleus and interaction with TCF4 (GSK3β inhibited by lithium ions); assay: TIDC: β-catenin translocation and β-catenin:TCF4 interaction dependent complementation, CHO[ps1706+ps1810]; format: cell-based, chinese hamster; settings: 5 mM LiCl for 16 hours
Text: In this example, complementary halves of GFP are fused separately to β-catenin and also to histone H2B coupled to the β-catenin-binding fragment of the transcriptional co-activator TCF4. Both constructs are then co-transfected and expressed within mammalian cells. The β-catenin construct is expected to be localised entirely in the cell cytoplasm at a low level, its concentration effectively controlled by the activity of the protein kinase GSK3β. The H2B-TCF4 construct will be localised in the nuclei of cells by the highly basic histone moeity. […] The development of nuclear fluorescence in lithium-treated cells therefore effectively reports on the combined result of translocation of β-catenin to the nucleus and the subsequent interaction between β-catenin and the β-catenin binding domain of TCF4. […]
After 10 to 12 days culture in the continuous presence of the selection agents, the resulting cell lines were judged to be stably transfected. For fluorescence microscopy, aliquots of cells were transferred to Lab-Tek chambered cover glasses (Nalge Nunc International, Naperville USA) and allowed to adhere for at least 24 hours to reach about 80% confluence. Images were collected using a Zeiss LSM410 inverted confocal fluorescence microscope (Zeiss, Jena, Germany) using x40 (oil immersion) objective. […]

[2] = system: translocation of β-catenin to the nucleus (GSK3β inhibited by lithium ions); assay: TDCzip: β-catenin translocation dependent complementation with leucine zippers, CHO[ps1736+ps1758]; format: cell-based, chinese hamster; settings: 5 mM LiCl for 16 hours
Text: In this example, complementary halves of GFP are fused separately to β-catenin and to histone H2B and co-expressed within cells. The β-catenin construct is expected to be localised entirely in the cell cytoplasm at a low level, its concentration effectively controlled by the activity of the protein kinase GSK3β. The H2B construct will be localised in the nuclei of cells by the highly basic histone moeity. […] However, when GSK3β is inhibited by lithium ions, the cytoplasmic level of the β-catenin construct is expected to increase in the cytoplasm, and to translocate in significant fashion to the nucleus. Both constructs have been engineered to contain a leucine zipper domain. […] The development of nuclear fluorescence in lithium-treated cells therefore effectively reports on the translocation of β-catenin to the nucleus. […]
After 10 to 12 days culture in the continuous presence of the selection agents, the resulting cell lines were judged to be stably transfected. For fluorescence microscopy, aliquots of cells were transferred to Lab-Tek chambered cover glasses (Nalge Nunc International, Naperville USA) and allowed to adhere for at least 24 hours to reach about 80% confluence. […] Image collection, subsequent measurement and analysis of fluorescence intensity were all controlled by IPLab Spectrum for Windows software (Scanalytics, Fairfax, Va. USA). […]

[3] = system: translocation of β-catenin to the nucleus (GSK3β inhibited by lithium; FKBP:FRB induced by rapamycin); assay: TDCrap: β-catenin translocation dependent complementation with rapamycin-inducible FKBP:FRB, CHO ps1809 with ps1827; format: cell-based, chinese hamster; settings: 5 mM LiCl for 16 hours
Text: In this example, complementary halves of GFP are fused separately to β-catenin and to histone H2B and co-expressed within cells. The β-catenin construct is expected to be localised entirely in the cell cytoplasm at a low level, its concentration effectively controlled by the activity of the protein kinase GSK3β. The H2B construct will be localised in the nuclei of cells by the highly basic histone moeity. […] Both constructs have also been engineered to contain inducible interaction domains. […] The H2B construct includes FRB, which is the 93 amino acid portion of FRAP, the large PI3Kinase homolog FRAP (also known as mTOR or RAFT).
Plasmids ps1809 with ps1827 were co-transfected into chinese hamster ovary cells (CHO) using the transfection agent FuGENE™ 6 (Boehringer Mannheim Corp, USA) according to the method recommended by the suppliers. […]
After 10 to 12 days culture in the continuous presence of the selection agents, the resulting cell lines were judged to be stably transfected. For fluorescence microscopy, aliquots of cells were transferred to Lab-Tek chambered cover glasses (Nalge Nunc International, Naperville USA) and allowed to adhere for at least 24 hours to reach about 80% confluence. […] Images were collected using a Zeiss LSM410 inverted confocal fluorescence microscope (Zeiss, Jena, Germany) using x40 (oil immersion) objective. […]

[4] = biological target: FKBP and FRB (FKBP binding part of FRAP) (Homo sapiens, UniProt P42345+P62942); assay: Rapamycin-inducible FKBP:FRB split-EYFP complementation, CHO-hIR [PS1767+PS1768] cells; format: cell-based; settings: 1 μM rapamycin
Method: Probes were co-transfected in pairs into CHO-hIR cells (supra), PS1769 with PS1771 and PS1767 with PS1768, using the transfection agent FuGENE™ 6 (Boehringer Mannheim Corp, USA) according to the method recommended by the suppliers. Cells were cultured in growth medium (HAM's F12 nutrient mix with Glutamax-1, 10% foetal bovine serum (FBS), 100 μg penicillin-streptomycin mixture ml^−1 (GibcoBRL, supplied by Life Technologies, Denmark)). Transfected cells were cultured in this medium, with the addition of two selection agents appropriate to the plasmids being used, being 1 mg/ml zeocin plus 0.5 mg/mlG418 sulphate. Cells were cultured at 37° C. in 100% humidity and conditions of normal atmospheric gases supplemented with 5% CO2.
After 10 to 12 days culture in the continuous presence of the selection agents, the resulting cell lines were judged to be stably transfected. For fluorescence microscopy, aliquots of cells were transferred to Lab-Tek chambered cover glasses (Nalge Nunc International, Naperville USA) and allowed to adhere for at least 24 hours to reach about 80% confluence. Images were routinely collected using a Nikon Diaphot 300 inverted fluorescence microscope (Nikon Corp., Tokyo, Japan) using x20 (dry) and/or x40 (oil immersion) objectives and coupled to a Orca ER charged coupled device (CCD) camera (Hammamatsu Photonics K.K., Hammamatsu City, Japan). […]

[5] = biological target: FRB-CtermEYFP173 (human; Aequorea victoria) (UniProt P42345); assay: cell-based or functional assay
[6] = biological target: FKBP-CtermEYFP173 (human; Aequorea victoria) (UniProt P62942); assay: cell-based or functional assay

For `[Cl-].[Li+]` [LiCl, lithium chloride], the “number of cells containing fluorescent GFP (nuclear)” value [1] was “the number of cells containing fluorescent GFP increases greatly”, the “cells with GFP-bright nuclei” value [2] was “a fraction of these cells display GFP-bright nuclei” and the “number of cells containing fluorescent GFP (nuclear)” value [3] was “the number of cells containing fluorescent GFP increases greatly”.

`CO[C@H]1C[C@@H]2CC[C@@H](C)[C@@](O)(O2)C(=O)C(=O)N2CCCC[C@H]2C(=O)O[C@H]([C@H](C)C[C@@H]2CC[C@@H](O)[C@H](OC)C2)CC(=O)[C@H](C)/C=C(\C)[C@@H](O)[C@@H](OC)C(=O)[C@H](C)C[C@H](C)/C=C/C=C/C=C/1C` [rapamycin] was tested, and the “proportion of cells with significantly greater EYFP fluorescence” value ([4]; after 4 hours) was “approximately 40%” and the “proportion of the cell population responding” value ([4]; after 16 hours) was “approximately 70%”.

“NtermE[F64L]YFP172-FKBP (from UniProt P62942 1-108)” gave an EC50 of FK506 in competition with 100 nM rapamycin, EYFP fluorescence/cell, 16 hours, 'black' group [5] of 1200 nM.

“NtermE[F64L]YFP172-FRB (from UniProt P42345 2025-2114)” was tested, and the EC50 of FK506 in competition with 100 nM rapamycin, EYFP fluorescence/cell, 16 hours, 'mid to low-green' group [6] was 1200 nM, the EC50 of rapamycin, dose-response of EYFP fluorescence at 7 and 30 hours, 'black' FACS group [6] was 100 nM and the EC50 of rapamycin, dose-response of EYFP fluorescence at 7 and 30 hours, 'medium to low-green' FACS group [6] was 250 nM. The half-time for development of cellular EYFP fluorescence after 3 µM rapamycin [6] was 5 h, the increase in EYFP fluorescence with rapamycin over the unstimulated value, 'medium to low-green' and 'black' FACS groups [6] was greater than 20 fold and the share of cells responding 16 hours after 1 µM rapamycin [6] was 70 % of cells. For the same compound, the share of cells with EYFP fluorescence before rapamycin (t=0) [6] was < 5 % of cells and the share of cells with greater EYFP fluorescence 4 hours after 1 µM rapamycin [6] was 40 % of cells.
